Measured values: patent US20140141019A1
pIC50: −log10 of the molar value.

Target: HER3 receptor on cells (HER3-transfected NIH 3T3 fibroblasts; SKBR3 cells; BxPC3 cells) (human) (UniProt P21860)
Test: flow cytometry competition on SKBR3 cells; HRG varied against anti-HER3 antibody (H4B-121, control antibody D) at its 50% maximal binding concentration

- pIC50: 8.60
Substance: heregulin (from UniProt Q02297 177-241) (ligand)
